Data published in patent US20260117202A1.
Values joined by “and” are separate entries in the source; they are usually repeats but may differ in a detail not shown here. Equal entries are not always repeated.

Assays:
FHCS-1 (RSV strain A2) [1] = target: FHCS-1 (RSV strain A2) (UniProt P03420); assay: ELISA; F coated 156.3 ng/ml; stored -80° C.
FHCS-2 (RSV strain A2) [2] = target: FHCS-2 (RSV strain A2) (UniProt P03420); assay: ELISA; F coated 156.3 ng/ml; stored -80° C.
FHCS-4 (RSV strain A2) [3] = target: FHCS-4 (RSV strain A2) (UniProt P03420); assay: ELISA; F coated 156.3 ng/ml; stored -80° C.
FHCS-1 (RSV strain A2) [4] = target: FHCS-1 (RSV strain A2) (UniProt P03420); assay: ELISA; F coated 312.5 ng/ml; stored -80° C.
FHCS-2 (RSV strain A2) [5] = target: FHCS-2 (RSV strain A2) (UniProt P03420); assay: ELISA; F coated 312.5 ng/ml; stored -80° C.
FHCS-4 (RSV strain A2) [6] = target: FHCS-4 (RSV strain A2) (UniProt P03420); assay: ELISA; F coated 312.5 ng/ml; stored -80° C.
FHCS-1 (RSV strain A2) [7] = target: FHCS-1 (RSV strain A2) (UniProt P03420); assay: ELISA; F coated 1250 ng/ml; stored 37° C. 2 W
FHCS-2 (RSV strain A2) [8] = target: FHCS-2 (RSV strain A2) (UniProt P03420); assay: ELISA; F coated 1250 ng/ml; stored 37° C. 2 W
FHCS-4 (RSV strain A2) [9] = target: FHCS-4 (RSV strain A2) (UniProt P03420); assay: ELISA; F coated 1250 ng/ml; stored 37° C. 2 W
FHCS-1 (RSV strain A2) [10] = target: FHCS-1 (RSV strain A2) (UniProt P03420); assay: ELISA; F coated 2500 ng/ml; stored 37° C. 2 W
FHCS-2 (RSV strain A2) [11] = target: FHCS-2 (RSV strain A2) (UniProt P03420); assay: ELISA; F coated 2500 ng/ml; stored 37° C. 2 W
FHCS-4 (RSV strain A2) [12] = target: FHCS-4 (RSV strain A2) (UniProt P03420); assay: ELISA; F coated 2500 ng/ml; stored 37° C. 2 W
FHCS-1 (RSV strain A2) [13] = target: FHCS-1 (RSV strain A2) (UniProt P03420); assay: ELISA; F coated 312.5 ng/ml; stored 37° C. 2 W
FHCS-2 (RSV strain A2) [14] = target: FHCS-2 (RSV strain A2) (UniProt P03420); assay: ELISA; F coated 312.5 ng/ml; stored 37° C. 2 W
FHCS-4 (RSV strain A2) [15] = target: FHCS-4 (RSV strain A2) (UniProt P03420); assay: ELISA; F coated 312.5 ng/ml; stored 37° C. 2 W
FHCS-1 (RSV strain A2) [16] = target: FHCS-1 (RSV strain A2) (UniProt P03420); assay: ELISA; F coated 5000 ng/ml; stored -80° C.
FHCS-2 (RSV strain A2) [17] = target: FHCS-2 (RSV strain A2) (UniProt P03420); assay: ELISA; F coated 5000 ng/ml; stored -80° C.
FHCS-4 (RSV strain A2) [18] = target: FHCS-4 (RSV strain A2) (UniProt P03420); assay: ELISA; F coated 5000 ng/ml; stored -80° C.
FHCS-1 (RSV strain A2) [19] = target: FHCS-1 (RSV strain A2) (UniProt P03420); assay: ELISA; F coated 1250 ng/ml; stored -80° C.
FHCS-2 (RSV strain A2) [20] = target: FHCS-2 (RSV strain A2) (UniProt P03420); assay: ELISA; F coated 1250 ng/ml; stored -80° C.
FHCS-4 (RSV strain A2) [21] = target: FHCS-4 (RSV strain A2) (UniProt P03420); assay: ELISA; F coated 1250 ng/ml; stored -80° C.
FHM-11 (RSV strain A2) = FHM-11 (RSV strain A2) (UniProt P03420); assay: sandwich ELISA, AM14 coated, supernatant 1:10
FHM-14 (RSV strain A2) = FHM-14 (RSV strain A2) (UniProt P03420); assay: sandwich ELISA, AM14 coated, supernatant 1:10
FHM-3 (RSV strain A2) = FHM-3 (RSV strain A2) (UniProt P03420); assay: sandwich ELISA, AM14 coated, supernatant 1:10
FHS-1 (RSV strain A2) = FHS-1 (RSV strain A2) (UniProt P03420); assay: sandwich ELISA, AM14 coated, supernatant 1:10
FHS-15 (RSV strain A2) = FHS-15 (RSV strain A2) (UniProt P03420); assay: sandwich ELISA, AM14 coated, supernatant 1:10
FHS-3 (RSV strain A2) = FHS-3 (RSV strain A2) (UniProt P03420); assay: sandwich ELISA, AM14 coated, supernatant 1:10
FHS-31 (RSV strain A2) = FHS-31 (RSV strain A2) (UniProt P03420); assay: sandwich ELISA, AM14 coated, supernatant 1:10
FHS-33 (RSV strain A2) = FHS-33 (RSV strain A2) (UniProt P03420); assay: sandwich ELISA, AM14 coated, supernatant 1:10
FHS-44 (RSV strain A2) = FHS-44 (RSV strain A2) (UniProt P03420); assay: sandwich ELISA, AM14 coated, supernatant 1:10
FHS-48 (RSV strain A2) = FHS-48 (RSV strain A2) (UniProt P03420); assay: sandwich ELISA, AM14 coated, supernatant 1:10
FHS-50 (RSV strain A2) = FHS-50 (RSV strain A2) (UniProt P03420); assay: sandwich ELISA, AM14 coated, supernatant 1:10
FHS-7 (RSV strain A2) = FHS-7 (RSV strain A2) (UniProt P03420); assay: sandwich ELISA, AM14 coated, supernatant 1:10
FHS-70 (RSV strain A2) = FHS-70 (RSV strain A2) (UniProt P03420); assay: sandwich ELISA, AM14 coated, supernatant 1:10
FHS-76 (RSV strain A2) = FHS-76 (RSV strain A2) (UniProt P03420); assay: sandwich ELISA, AM14 coated, supernatant 1:10
FHS-85 (RSV strain A2) = FHS-85 (RSV strain A2) (UniProt P03420); assay: sandwich ELISA, AM14 coated, supernatant 1:10
FHS-86 (RSV strain A2) = FHS-86 (RSV strain A2) (UniProt P03420); assay: sandwich ELISA, AM14 coated, supernatant 1:10
FHS-88 (RSV strain A2) = FHS-88 (RSV strain A2) (UniProt P03420); assay: sandwich ELISA, AM14 coated, supernatant 1:10
FHS-96 (RSV strain A2) = FHS-96 (RSV strain A2) (UniProt P03420); assay: sandwich ELISA, AM14 coated, supernatant 1:10

## Synagis® (antibody)
FHCS-1 (RSV strain A2) [1]
  OD value: 0.021 OD and 0.019 OD
FHCS-2 (RSV strain A2) [2]
  OD value: 0.043 OD and 0.038 OD
FHCS-4 (RSV strain A2) [3]
  OD value: 0.016 OD
FHCS-1 (RSV strain A2) [4]
  OD value: 0.065 OD and 0.053 OD
FHCS-2 (RSV strain A2) [5]
  OD value: 0.109 OD and 0.097 OD
FHCS-4 (RSV strain A2) [6]
  OD value: 0.032 OD and 0.028 OD
FHCS-1 (RSV strain A2) [7]
  OD value: 0.478 OD and 0.493 OD
FHCS-2 (RSV strain A2) [8]
  OD value: 0.78 OD and 0.704 OD
FHCS-4 (RSV strain A2) [9]
  OD value: 0.535 OD and 0.54 OD
FHCS-1 (RSV strain A2) [10]
  OD value: 1.88 OD and 1.43 OD
FHCS-2 (RSV strain A2) [11]
  OD value: 1.6 OD and 1.85 OD
FHCS-4 (RSV strain A2) [12]
  OD value: 1.46 OD and 1.58 OD
FHCS-1 (RSV strain A2) [13]
  OD value: 0.051 OD and 0.05 OD
FHCS-2 (RSV strain A2) [14]
  OD value: 0.084 OD and 0.095 OD
FHCS-4 (RSV strain A2) [15]
  OD value: 0.074 OD and 0.071 OD

## AM14 monoclonal antibody
FHCS-1 (RSV strain A2) [16]
  OD value: 0.158 OD and 0.167 OD
FHCS-2 (RSV strain A2) [17]
  OD value: 0.203 OD and 0.382 OD
FHCS-4 (RSV strain A2) [18]
  OD value: 0.404 OD and 0.294 OD
FHCS-1 (RSV strain A2) [19]
  OD value: 0.011 OD and 0.015 OD
FHCS-2 (RSV strain A2) [20]
  OD value: 0.017 OD and 0.02 OD
FHCS-4 (RSV strain A2) [21]
  OD value: 0.007 OD and 0.006 OD
FHM-11 (RSV strain A2)
  OD value: 0.006 OD
FHM-14 (RSV strain A2)
  OD value: 0.008 OD
FHM-3 (RSV strain A2)
  OD value: 0.07 OD
FHS-1 (RSV strain A2)
  OD value: 2.03 OD
FHS-15 (RSV strain A2)
  OD value: 0.091 OD
FHS-3 (RSV strain A2)
  OD value: 0.076 OD
FHS-31 (RSV strain A2)
  OD value: 0.007 OD
FHS-33 (RSV strain A2)
  OD value: 0.005 OD
FHS-44 (RSV strain A2)
  OD value: 0.039 OD
FHS-48 (RSV strain A2)
  OD value: 2.42 OD
FHS-50 (RSV strain A2)
  OD value: 2.3 OD
FHS-7 (RSV strain A2)
  OD value: 0.011 OD
FHS-70 (RSV strain A2)
  OD value: 0.007 OD
FHS-76 (RSV strain A2)
  OD value: 0.821 OD
FHS-85 (RSV strain A2)
  OD value: 0.008 OD
FHS-86 (RSV strain A2)
  OD value: 0.062 OD
FHS-88 (RSV strain A2)
  OD value: 2.3 OD
FHS-96 (RSV strain A2)
  OD value: 0.011 OD
